Assay results reported in patent US9555076B2, “Neuregulin based methods and compositions for treating cardiovascular diseases” (Zensun (Shanghai) Science & Technology, Co., Ltd., priority 2002, dated 2017).
Where “and” joins values, the source holds several entries; their conditions need not be identical. Equal entries are not always repeated.

Assays:
[1] = tested on: heart failure in rat caused by ligation of coronary artery; experiment: Echocardiography heart function, heart failure by ligation of coronary artery; type: in vivo, SD rat
Method: Route of drug administration: in both testing drug group and model group the drug was injected into the tail vein once per day for consecutive 5 days. Echocardiography was performed at the 6th day prior to drug administration, then continuously injected for 5 days. Volume of each drug injection was 0.4 ml/100 g body weight.
After anesthesia with intra-abdominal injection of 100 mg/kg ketamine, the rat was fixed on rat plate in supine position, disinfection of the neck region with bromo-geramine was carried out after depilating. Midline incision was made, trachea was found after separating the anterior cervical muscle, 18 G arterial indwelling trochar was inserted into the trachea at the level of 3-5 tracheal cartilage, took out the stylet, push the plastic cannula 1-2 cm further into the trachea, fixed it for later connection with ventilator for small animal (tidal volume was about […], frequency was 80/min). […] Then closed the chest wall, block the opening of the ventilator to inflate the lungs, forcefully pressed the chest to drive out the air, then sutured the chest muscle and skin. Monitoring the respiration, after spontaneous respiration recovered, withdrawn the ventilator, took the animal back to its cage for breeding. In the pseudo-operation group, only the pericardium was tore open, but without the coronary artery ligation.
Echocardiograph was performed for the operated rat at about 6 days postoperatively, those animals with about 50% reduction of EF value were randomly divided into groups, the EF value of each group was all about 50%, then drug administration began.
Those animals with EF value of about 50% were randomly divided into model group (negative group) and 3-dosage level testing drug groups with 12-13 animals in each group. Route of drug administration in testing drug group and model group was injection into the tail vein, once every day for consecutive 5 days. After echocardiography at the 6th day, another 5 days of consecutive drug administration was carried out. Drug volume of each injection was 0.4 ml/100 g body weight.
Echocardiography was performed under anesthesia with ketamine after the legation and prior to drug administration and at the 6th day, 11th day of drug administration, the major index included: • EF: heart ejection fraction, reflecting ejection function of ventricle; • FS: ventricular short axis shortening rate, reflecting contraction function of ventricle; • LVDd: diastolic maximal inner diameter of left ventricle (cm); • LVDs: systolic minimal inner diameter of left ventricle (cm). 6.3.3.2 Determination of the Content of Plasma Renin-angiotensin-aldosterone

[2] = tested on: heart failure in rat caused by ligation of coronary artery; experiment: Plasma renin-angiotensin-aldosterone radioimmunoassay; type: in vivo, SD rat
Method: Carotid artery phlebotomy was carried out and plasma extracted according to the mandate of the reagent kit, frozen and stored at −20° C. Renin activity (PRA), angiotensin I (AI), angiotensin II (AII) and aldosterone (ALD) content were determined with immunoassay.

[3] = 5 μg/kg group, prior to drug administration, (1)
[4] = 5 μg/kg iv 10 qd, 10 days after the drug administration, (II)
[5] = 5 μg/kg iv qd × 5, 5 days after the drug administration, (1)
[6] = 5 μg/kg iv qd × 5, 5 days after the drug administration, (II)
[7] = 5 μg/kg iv qd × 10, 10 days after the drug administration, (1)
[8] = 5 μg/kg, Table 4, titled 10 days after the drug administration, (II)
[9] = 10 μg/kg group, prior to drug administration, (1)
[10] = 10 μg/kg iv 10 qd, 10 days after the drug administration, (II)
[11] = 10 μg/kg iv qd × 5, 5 days after the drug administration, (1)
[12] = 10 μg/kg iv qd × 5, 5 days after the drug administration, (II)
[13] = 10 μg/kg iv qd × 10, 10 days after the drug administration, (1)
[14] = 10 μg/kg, Table 4, titled 10 days after the drug administration, (II)
[15] = 20 μg/kg group, prior to drug administration, (1)
[16] = 20 μg/kg iv 10 qd, 10 days after the drug administration, (II)
[17] = 20 μg/kg iv qd × 5, 5 days after the drug administration, (1)
[18] = 20 μg/kg iv qd × 5, 5 days after the drug administration, (II)
[19] = 20 μg/kg iv qd × 10, 10 days after the drug administration, (1)
[20] = 20 μg/kg, Table 4, titled 10 days after the drug administration, (II)
[21] = dose not given (n = 6), iv qd × 10

B1: rhNRG-1 β: Recombinant human neuregulin fragment of 61 amino acid (SEQ ID NO:4), 3 disulfide bonds, expressed in E. coli (protein, listed as Homo sapiens)
chain: SHLVKCAEKEKTFCVNGGECFMVKDLSNPSRYLCKCPNEFTGDRCQNYVMASFYKAEELYQ
modifications: disulfide (positions not given here)
[1]; [3]
  EF: 49.3%
  FS: 22.0%
  LVDd: 0.761 cm
  LVDs: 0.596 cm
[1]; [4]
  EF: 57.90%
  FS: 29.26%
  LVDd: 0.70 cm
  LVDs: 0.53 cm
[1]; [5]
  EF: 62.9±8.4% and 62.90%
  FS: 30.3±6.1% and 30.32%
  LVDd: 0.73 cm
  LVDs: 0.54 cm
[1]; [6]
  EF: 56.76%
  FS: 28.35%
  LVDd: 0.74 cm
  LVDs: 0.58 cm
[1]; [7]
  EF: 59.2±12.4% and 59.2%
  FS: 28.4±8.6% and 28.4%
  LVDd: 0.72 cm
  LVDs: 0.55 cm
[1]; 5 μg/kg, 5-day after drug administration and 35-day after drug withdrawal
  EF value: 69.9 ± 28.6%
[1]; 5 μg/kg, 5-day after drug administration, long-term monitoring
  EF value: 75.8 ± 15.3%
[1]; [8]
  EF: 50.81%
  FS: 22.83%
  LVDd: 0.66 cm
  LVDs: 0.51 cm
[1]; [9]
  EF: 49.5%
  FS: 22.1%
  LVDd: 0.709 cm
  LVDs: 0.555 cm
[1]; [10]
  EF: 66.54%
  FS: 34.28%
  LVDd: 0.68 cm
  LVDs: 0.49 cm
[1]; [11]
  EF: 64.4±12.9% and 64.3±12.8% and 64.35%
  FS: 32.0±9.5% and 32.01%
  LVDd: 0.71 cm
  LVDs: 0.51 cm
[1]; [12]
  EF: 56.51%
  FS: 26.53%
  LVDd: 0.72 cm
  LVDs: 0.54 cm
[1]; [13]
  EF: 61.4±15.0% and 61.4%
  FS: 30.3±10.4% and 30.3%
  LVDd: 0.7 cm
  LVDs: 0.51 cm
[1]; 10 μg/kg, 5-day after drug administration and 35-day after drug withdrawal
  EF value: 63.8 ± 23.8%
[1]; 10 μg/kg, 5-day after drug administration, long-term monitoring
  EF value: 77.3 ± 11.6%
[1]; [14]
  EF: 51.67%
  FS: 23.27%
  LVDd: 0.64 cm
  LVDs: 0.49 cm
[1]; 10 μg/kg, after ligation prior to drug administration, long-term monitoring
  EF value: 52.2 ± 12.8%
[1]; [15]
  EF: 49.3%
  FS: 21.7%
  LVDd: 0.730 cm
  LVDs: 0.575 cm
[1]; [16]
  EF: 70.22%
  FS: 36.49%
  LVDd: 0.65 cm
  LVDs: 0.42 cm
[1]; [17]
  EF: 71.1±12.0% and 71.07%
  FS: 36.9±9.7% and 36.88%
  LVDd: 0.70 cm
  LVDs: 0.46 cm
[1]; [18]
  EF: 65.47%
  FS: 34.23%
  LVDd: 0.68 cm
  LVDs: 0.46 cm
[1]; [19]
  EF: 75.7±10.8% and 75.7%
  FS: 41.3±11.0% and 41.3%
  LVDd: 0.6 cm
  LVDs: 0.5 cm
[1]; 20 μg/kg, 5-day after drug administration, long-term monitoring
  EF value: 79.2 ± 4.7 %
[1]; [20]
  EF: 52.29%
  FS: 23.89%
  LVDd: 0.74 cm
  LVDs: 0.56 cm
[1]; 20 μg/kg, after ligation prior to drug administration, long-term monitoring
  EF value: 52.4 ± 13.8%
[2]; 5 μg/kg iv qd × 10
  AI: 10.036 ng/mL
  AII: 807.304 pg/mL
  ALD: 1.472 ng/mL
  PRA: 4.032 ng/ml · h
[2]; 10 μg/kg iv qd × 10
  AI: 7.65 ± 1.40 ng/mL and 7.654 ng/mL
  AII: 468.58 ± 165.10 pg/mL and 468.583 pg/mL
  ALD: 1.26 ± 0.38 ng/mL and 1.264 ng/mL
  PRA: 1.075±1.50 ng/ml · h and 1.075 ng/ml · h
[2]; 20 μg/kg iv qd × 10
  AI: 7.40 ± 12.15 ng/mL and 7.400 ng/mL
  AII: 641.47 ± 283.86 pg/mL and 641.47 pg/mL
  ALD: 1.02 ± 0.27 ng/mL and 1.018 ng/mL
  PRA: 1.337±1.09 ng/ml · h and 1.337 ng/ml · h
[2]; [21]
  AI: 10.655 ng/mL
  AII: 1366.38 pg/mL
  ALD: 1.738 ng/mL
  PRA: 3.506 ng/ml · h
